T1: formyl peptide receptor 2 (FPR2) (UniProt P25090 1-351, limits assumed)
T1 sequence (looked up): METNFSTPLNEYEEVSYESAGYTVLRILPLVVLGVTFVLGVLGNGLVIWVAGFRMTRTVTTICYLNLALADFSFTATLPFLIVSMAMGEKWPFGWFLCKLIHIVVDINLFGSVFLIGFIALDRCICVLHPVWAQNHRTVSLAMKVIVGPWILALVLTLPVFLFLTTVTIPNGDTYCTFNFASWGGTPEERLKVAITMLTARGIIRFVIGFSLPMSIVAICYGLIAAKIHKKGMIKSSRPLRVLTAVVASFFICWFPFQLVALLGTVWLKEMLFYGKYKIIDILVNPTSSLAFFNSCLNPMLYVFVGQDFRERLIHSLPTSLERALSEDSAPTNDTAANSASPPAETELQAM

T2: FPR1 (UniProt P21462 1-350, limits assumed)
T2 sequence (looked up): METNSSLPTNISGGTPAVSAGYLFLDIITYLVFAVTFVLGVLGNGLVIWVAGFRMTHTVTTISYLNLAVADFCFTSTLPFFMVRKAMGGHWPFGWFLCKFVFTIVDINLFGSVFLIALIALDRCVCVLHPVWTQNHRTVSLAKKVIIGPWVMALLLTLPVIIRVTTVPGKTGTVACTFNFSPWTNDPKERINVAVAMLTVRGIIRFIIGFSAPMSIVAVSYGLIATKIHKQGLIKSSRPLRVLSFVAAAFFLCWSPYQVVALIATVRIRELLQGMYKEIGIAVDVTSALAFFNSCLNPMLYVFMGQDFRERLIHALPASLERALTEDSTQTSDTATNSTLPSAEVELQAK


How the values were obtained:
[1] = target: T1, formyl peptide receptor 2 (FPR2); assay: cell-based or functional assay
[2] = target: T2, FPR1; assay: cell-based or functional assay

| Binder | EC50 for [Ca2+] [1] | EC50 for [Ca2+] [2] |
| --- | --- | --- |
| PMKYKVM (HELM PEPTIDE1{[ac].P.M.K.Y.K.V.[dM].[am]}$$$$V2.0; SMILES CSCC[C@H](NC(=O)[C@@H]1CCCN1C(C)=O)C(=O)N[C@@H](CCCCN)C(=O)N[C@@H](Cc1ccc(O)cc1)C(=O)N[C@@H](CCCCN)C(=O)N[C@H](C(=O)N[C@H](CCSC)C(N)=O)C(C)C) [peptide of SEQ ID NO 26] | < 0.01 µM | > 10 µM |
| PMKYKVM (HELM PEPTIDE1{P.M.K.Y.K.V.[dM].[am]}$$$$V2.0; N-terminus assumed; SMILES CSCC[C@H](NC(=O)[C@@H]1CCCN1)C(=O)N[C@@H](CCCCN)C(=O)N[C@@H](Cc1ccc(O)cc1)C(=O)N[C@@H](CCCCN)C(=O)N[C@H](C(=O)N[C@H](CCSC)C(N)=O)C(C)C) [peptide of SEQ ID NO 25] | < 0.01 µM | > 10 µM |
| HMKYKVM (HELM PEPTIDE1{[CCCC(=O)[*:2]].H.M.K.Y.K.V.[dM].[am]}$$$$V2.0; SMILES CCCC(=O)N[C@@H](Cc1c[nH]cn1)C(=O)N[C@@H](CCSC)C(=O)N[C@@H](CCCCN)C(=O)N[C@@H](Cc1ccc(O)cc1)C(=O)N[C@@H](CCCCN)C(=O)N[C@H](C(=O)N[C@H](CCSC)C(N)=O)C(C)C) [peptide of SEQ ID NO 23] | < 0.01 µM | > 10 µM |
| PMKYKVM (HELM PEPTIDE1{[CCCCCCCC(=O)[*:2]].P.M.K.Y.K.V.[dM].[am]}$$$$V2.0; SMILES CCCCCCCC(=O)N1CCC[C@H]1C(=O)N[C@@H](CCSC)C(=O)N[C@@H](CCCCN)C(=O)N[C@@H](Cc1ccc(O)cc1)C(=O)N[C@@H](CCCCN)C(=O)N[C@H](C(=O)N[C@H](CCSC)C(N)=O)C(C)C) [peptide of SEQ ID NO 28] | < 0.01 µM | > 10 µM |
| HMKYKVM (HELM PEPTIDE1{[CCCCCCCC(=O)[*:2]].H.M.K.Y.K.V.[dM].[am]}$$$$V2.0; SMILES CCCCCCCC(=O)N[C@@H](Cc1c[nH]cn1)C(=O)N[C@@H](CCSC)C(=O)N[C@@H](CCCCN)C(=O)N[C@@H](Cc1ccc(O)cc1)C(=O)N[C@@H](CCCCN)C(=O)N[C@H](C(=O)N[C@H](CCSC)C(N)=O)C(C)C) [peptide of SEQ ID NO 24] | < 0.01 µM | > 10 µM |
| HMKYKVM (HELM PEPTIDE1{H.M.K.Y.K.V.[dM].[am]}$$$$V2.0; N-terminus assumed; SMILES CSCC[C@H](NC(=O)[C@@H](N)Cc1c[nH]cn1)C(=O)N[C@@H](CCCCN)C(=O)N[C@@H](Cc1ccc(O)cc1)C(=O)N[C@@H](CCCCN)C(=O)N[C@H](C(=O)N[C@H](CCSC)C(N)=O)C(C)C) [peptide of SEQ ID NO 21] | < 0.01 µM | > 10 µM |
| HMKYKVM (HELM PEPTIDE1{[ac].H.M.K.Y.K.V.[dM].[am]}$$$$V2.0; SMILES CSCC[C@H](NC(=O)[C@H](Cc1c[nH]cn1)NC(C)=O)C(=O)N[C@@H](CCCCN)C(=O)N[C@@H](Cc1ccc(O)cc1)C(=O)N[C@@H](CCCCN)C(=O)N[C@H](C(=O)N[C@H](CCSC)C(N)=O)C(C)C) [peptide of SEQ ID NO 22] | < 0.01 µM | > 10 µM |
| PMKYKVM (HELM PEPTIDE1{[CCCC(=O)[*:2]].P.M.K.Y.K.V.[dM].[am]}$$$$V2.0; SMILES CCCC(=O)N1CCC[C@H]1C(=O)N[C@@H](CCSC)C(=O)N[C@@H](CCCCN)C(=O)N[C@@H](Cc1ccc(O)cc1)C(=O)N[C@@H](CCCCN)C(=O)N[C@H](C(=O)N[C@H](CCSC)C(N)=O)C(C)C) [peptide of SEQ ID NO 27] | < 0.01 µM | > 10 µM |
